{"source": "patent US8168160B2", "about": "“Anti-inflammatory fusion protein” (Eberhard-Karls-Universität Tübingen, priority 2006, dated 2012)", "key": {"[1]": {"test_system": "foam cell formation from CD34+ stem cells co-cultivated with thrombocytes", "assay": "Foam cell formation by co-cultivation of CD34+ stem cells with thrombocytes, counted by phase contrast microscopy", "format": "cell-based, human", "description": "To isolate human thrombocytes venous blood was withdrawn from healthy test persons and collected into acidic citrate dextrose (ACD) buffer. After the centrifugation at 430 g for 20 minutes the platelet-rich plasma (PRP) was removed, added to Tyrodes HEPES buffer (2.5 mM HEPES, 150 mM NaCl, 1 mM […], 2.5 mM NaHCO3, 0.36 mM NaH2PO4, 5.5 mM glucose, 1 mg/ml BSA, pH 6.5) and centrifuged at 900 g for 10 minutes. After the removal of the supernatant the thrombocyte containing pellet was suspended in Tyrodes HEPES buffer (pH 7.4).\nHuman CD34^+ cells were isolated from human cord blood. This was obtained after the approval of the local ethics committee from healthy women immediately after the birth of a child. At least 95% of the isolated cells were positive for CD34^+ which was confirmed by means of flow cytometry analysis after each isolation. Human mononuclear cells were also obtained from cord blood by density gradient centrifugation on the Biocoll separation solution (BIOCROM Berlin, Germany) at 600 g for 15 minutes. CD34^+ cells were enriched by immunoaffinity selection (CD34 progenitor cell isolation kit; Milteenyi Biotec, Bergisch Gladbach, Germany) according to the manual of the producer. In the following the cells were incubated on 96 well plates which were covered with 0.2% gelatine. For the cultivation of the cells IMDM with glutamax, supplemented with 5% heat-inactivated fetal calf serum, […] penicillin-streptomycin, 1% MEM vitamins and 1% non-essential amino acids were used, all purchased from Gibco (Invitrogen, Karlsruhe, Germany). CD34^+ progenitor cells (50000 cells) were co-cultivated at 37° C. and 5% CO2 with thrombocytes (2×10^8-ml) in 96 well plates which were pre-covered with 0.2% gelatine. The formation of foam cells was counted in six windows by means of phase contrast microscopy.\nFoam cells were produced by co-incubation of CD34^+ stem cells with thrombocytes for 10 days in vitro. […] In the following it was microscopically analyzed whether the foam cell formation was inhibited by the incubation with the CD68-Fc homodimers. […]"}, "[2]": {"test_system": "atherosclerotic plaque tissue", "assay": "Immunohistological analysis of thrombus endarterectomy preparations of the Arteria carotis", "format": "binding", "settings": "human thrombus endarterectomy preparations of Arteria carotis (FIG. 5B)", "description": "(§1) Atherosclerotic plaques from the carotid of patients, removed within the context of a surgery, were disintegrated, suspended, transferred to culture plates and surface-dried. Then a specific ELISA against the Fc portion of the CD68 or GPVI or pure Fc, respectively, was performed. In a parallel immunohistological analysis of human tissue from thrombus endarterectomy preparations of the Arteria carotis were performed."}, "MMP-9": {"test_system": "MMP-9", "assay": "MMP-9 expression in the supernatant of foam cells", "format": "cell-based, human", "description": "Moreover the method of ROS (“Reactive Oxygen Species”) measurement was used. Typically in the course of an inflammation process monocytes infiltrate the vascular wall, there differentiate into macrophages and produce cytokines, proteases such as the matrix metalloproteinase (MMP) and complement factors, but also free oxidized radicals, i.e. ROS. For the foam cells resulting from the co-incubation of CD34^+ stem cells with thrombocytes in vitro it was detected that they release ROS and also produce matrix metalloproteinase 9 (MMP-9).\nThe bands correspond to the expression level of MMP-9. In the corresponding lanes the following samples were loaded: 1. control CD34, 2. control CD34, 3. control protein 100 µg/ml, 4. control protein 400 μg/ml, 5. CD68-Fc homodimer 100 µg/ml, 6. CD68-Fc homodimer 200 µg/ml, 7. CD68-Fc homodimer 400 µg/ml, 8. Fluvastatin 1 μM."}, "[3]": {"test_system": "atherosclerotic plaque tissue from the carotid of patients", "assay": "Specific Fc-ELISA on atherosclerotic plaques in vitro", "format": "binding", "settings": "disintegrated, surface-dried human carotid plaques (FIG. 5A)", "description": "as §1"}, "[4]": {"test_system": "atherosclerotic vessels of Apo E mice", "assay": "In vivo application of J124-labeled CD68-Fc, ex vivo autoradiography of vessels", "settings": "A. carotis; Apo E mice in relation to wild type (FIG. 6)", "description": "Furthermore an in vivo application of J124-labeled CD68-Fc in atherosclerotic Apo E mice and in wild type mice was performed. J124-labeled CD68-Fc was administered into 24 weeks old atherosclerotic mice or in control wild type mice without any significant atherosclerosis. The organs were then removed and the A. carotis on both sides and the aortic arch were analyzed by autoradiography ex vivo.\nA staining with oil-red and a corresponding autoradiography is shown in partial figure (B)."}, "[5]": {"settings": "increasing concentrations (summary statement)"}}, "data": [{"molecule": "CD68-Fc homodimer: Fusion of extracellular domain of human CD68 with mutated human IgG1 Fc via three amino acid connecting element (SEQ ID No. 6), secreted as disulfide-linked homodimer (protein, homodimer; Recombinant CD68-Fc fusion protein) NDCPHKKSATLLPSFTVTPTVTESTGTTSHRTTKSHKTTTHRTTTTGTTSHGPTTATHNPTTTSHGNVTVHPTSNSTATSQGPSTATHSPATTSHGNATVHPTSNSTATSPGFTSSAHPEPPPPSPSPSPTSKETIGDYTWTNGSQPCVHLQAQIQIRVMYTTQGGGEAWGISVLNPNKTKVQGSCEGAHPHLLLSFPYGHLSFGFMQDLQQKVVYLSYMAVEYNVSFPHAAQWTFSAQNASLRDLQAPLGQSFSCSNSSIILSPAVHLDLLSLRLQAAQLPHTGVFGQSFSCPSDRSGGRESKSCDKTHTCPPCPAPEAAAAPSVFLFPPKPKDTLMISRTPEVTCVVVDVSHEDPEVKFNWYVDGVEVHNAKTKPREEQYNSTYRVVSVLTVLHQDWLNGKEYKCKVSNKALPASIEKTISKAKGQPREPQVYTLPPSRDELTKNQVSLTCLVKGFYPSDIAVEWESNGQPENNYKTTPPVLDSDGSFFLYSKLTVDKSRWQQGNVFSCSVMHEALHNHYTQKSLSLSPGK", "values": [{"measurement": "foam cell formation", "setting": "[1]; co-incubation of CD34+ stem cells with thrombocytes for 10 days in vitro, microscopic analysis (FIG. 3B)", "result": "inhibited the formation of the foam cells"}, {"measurement": "foam cell formation, dependence on dosage", "setting": "[1]; concentration of 400 μg/ml, pure Fc as control (FIG. 3C)", "result": "virtually completely inhibited"}, {"measurement": "formation of foam cells in co-cultivation assays in vitro", "setting": "[1]; [5]", "result": "significant inhibition of the formation of foam cells"}, {"measurement": "binding to atherosclerotic plaque tissue (immunohistology)", "setting": "[2]", "result": "significant binding"}, {"measurement": "expression of MMP-9 in the supernatant of foam cells", "setting": "MMP-9; 100, 200 and 400 μg/ml (lanes 5, 6, 7), in relation with control protein (FIG. 4)", "result": "clear inhibition of the formation of MMP-9"}, {"measurement": "secretion of MMP-9 by foam cells", "setting": "MMP-9; [5]", "result": "can be inhibited"}, {"measurement": "binding to atherosclerotic plaque tissue (Fc-ELISA)", "setting": "[3]", "result": "significant binding"}, {"measurement": "accumulation in vessels (autoradiography ex vivo)", "setting": "[4]", "result": "No significantly increased accumulation"}]}]}
